Assay [1] has as its target T1, amylin receptor of rat nucleus accumbens membranes (rat).
T1 chain 1: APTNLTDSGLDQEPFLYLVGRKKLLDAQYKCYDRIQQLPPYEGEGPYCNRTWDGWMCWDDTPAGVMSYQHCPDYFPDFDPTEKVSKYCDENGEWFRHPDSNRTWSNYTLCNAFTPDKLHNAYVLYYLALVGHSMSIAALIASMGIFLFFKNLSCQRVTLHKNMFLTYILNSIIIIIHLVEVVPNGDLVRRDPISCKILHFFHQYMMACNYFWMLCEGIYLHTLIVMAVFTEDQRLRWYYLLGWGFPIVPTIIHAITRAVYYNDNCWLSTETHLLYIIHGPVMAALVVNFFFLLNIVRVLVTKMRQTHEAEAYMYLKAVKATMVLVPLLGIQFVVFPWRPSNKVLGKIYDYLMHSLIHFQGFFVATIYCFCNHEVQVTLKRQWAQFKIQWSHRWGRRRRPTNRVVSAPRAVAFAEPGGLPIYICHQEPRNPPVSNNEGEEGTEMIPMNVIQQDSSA
T1 chain 2: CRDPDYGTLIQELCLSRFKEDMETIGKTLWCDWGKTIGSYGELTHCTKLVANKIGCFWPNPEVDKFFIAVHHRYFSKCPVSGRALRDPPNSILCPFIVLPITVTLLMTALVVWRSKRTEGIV
The assay can be described thus: competition with 125I-rat amylin, rat nucleus accumbens membranes.

The target of assay [2] is T2, human amylin receptor 3 (human, UniProt P30988 25-474; O60896 24-148).
T2 sequence (looked up) 1: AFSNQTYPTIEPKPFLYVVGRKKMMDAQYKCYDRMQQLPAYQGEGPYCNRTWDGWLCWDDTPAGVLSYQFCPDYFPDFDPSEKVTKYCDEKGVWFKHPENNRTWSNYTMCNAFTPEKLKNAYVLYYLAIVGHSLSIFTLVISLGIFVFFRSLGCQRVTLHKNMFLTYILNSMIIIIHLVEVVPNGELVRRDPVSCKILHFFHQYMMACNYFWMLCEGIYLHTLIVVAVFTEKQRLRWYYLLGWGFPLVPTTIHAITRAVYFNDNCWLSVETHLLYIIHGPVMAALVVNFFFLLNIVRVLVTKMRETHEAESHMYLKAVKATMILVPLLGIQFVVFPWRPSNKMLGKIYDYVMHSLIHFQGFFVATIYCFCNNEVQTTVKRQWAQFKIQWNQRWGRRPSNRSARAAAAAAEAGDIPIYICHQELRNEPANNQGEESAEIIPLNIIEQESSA
T2 sequence (looked up) 2: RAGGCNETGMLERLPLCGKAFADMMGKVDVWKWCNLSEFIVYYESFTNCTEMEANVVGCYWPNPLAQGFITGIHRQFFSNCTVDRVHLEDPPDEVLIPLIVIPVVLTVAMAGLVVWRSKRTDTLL
The assay can be described thus: cell-based or functional assay.

The target of assay [3] is T2, human amylin receptor 3. Put plainly: competition with 125I-rat amylin, human AMY3 receptor.
In assay [4] the target is T3, amylin receptor of rat nucleus accumbens membranes (rat).
T3 construct: whole, on cells; native tissue membranes; also called RNA membranes
Put plainly: competition with 125I-rat amylin, rat nucleus accumbens membranes.

Ends that are not written are not given here. Y‑shaped‑mPEG40KD = Y-shaped methoxy-PEG of 40 kDa attached to the Lys side chain; mPEG40KD = methoxy-PEG of 40 kDa

In the case of CNTATCATQRLANFLVRSSNNLGPK(mPEG40KD)LPPTNVGSNTY-NH2 (ends and bridges not checked, also called Cmpd 72) [[K^26(mPEG40KD)]-Cmpd 54], the half-inhibitory concentration (IC50) in assay [1] came out at 54 nM.
Still for that read-out and setting: the result for CNTATCATQRLANFLVRSSK(mPEG 40 kDa)NLGPVLPPTNVGSNTY-NH2 (ends and bridges not checked, also called Cmpd 70) [[K^21(mPEG40KD)]-Cmpd 52] reads 112 nM.
In assay [1], KCNTATCATQRLANFLVRSSK(mPEG 40 kDa)NLGPVLPPTNVGSNTY-NH2 (ends and bridges not checked, also called Cmpd 69) [[K^21(mPEG40KD)]-Cmpd 51] registered a half-inhibitory concentration (IC50) of 104 nM.
On the same count and under the same terms, the result for KCNTATCATQRLANFLVRSSNNLGPVLPPTK(mPEG40KD)VGSNTY-NH2 (ends and bridges not checked, also called Cmpd 73) [[K^31(mPEG40KD)]-Cmpd 55] reads 86 nM.
On to CNTATCATQRLANFLVHSSNNFGPK(Y‑shaped‑mPEG40KD)LPPTNVGSNTY-NH2 (ends and bridges not checked, also called Cmpd 79) [[K^26(Y-shaped-mPEG40KD)]-Cmpd 60], for which, in the assay with human amylin receptor 3 [2], the “Functional EC50, Human AMY3” value was 1.74 nM. In addition, the IC50 in the assay with human amylin receptor 3 [3] worked out at 1130 nM; in assay [4], 132 nM.
On the same counts, the results for CNTATCATQRLANFLVHSSNNFGPK(mPEG40KD)LPPTNVGSNTY-NH2 (ends and bridges not checked, also called Cmpd 77) [[K^26(mPEG40KD)]-Cmpd 60] are 0.078 nM, 60 nM and 39 nM.
Turning to CNTATCATQRLANFLVHSSNNFGPILPPTNVGK(mPEG40KD)NTY-NH2 (ends and bridges not checked, also called Cmpd 94) [[K^34(mPEG40KD)]-Cmpd 58], the “Functional EC50, Human AMY3” value in the assay with human amylin receptor 3 [2] came to 0.034 nM. Further, in the assay with human amylin receptor 3 [3], the IC50 is 77 nM.
The like results for CNTATCATQRLANFLVHSSNNFGPILPPTNVGSNK(mPEG40KD)Y-NH2 (ends and bridges not checked, also called Cmpd 96) [[K^36(mPEG40KD)]-Cmpd 58] were, in that order, 3.07 nM and 984 nM.
The like results for CNTATCATQRLANFLVHSSNNFGPILPPTNVK(mPEG40KD)SNTY-NH2 (ends and bridges not checked, also called Cmpd 93) [[K^33(mPEG40KD)]-Cmpd 58] were, in that order, 1.69 nM and 860 nM.
With CNTATCATQRLANFLVHSSNNK(mPEG 40 kDa)GPILPPTNVGSNTY-NH2 (ends and bridges not checked, also called Cmpd 86) [[K^23(mPEG40KD)]-Cmpd 58], in the assay with human amylin receptor 3 [2], the “Functional EC50, Human AMY3” value is 2.82 nM. Further, the results for the IC50 (in the assay with human amylin receptor 3 [3]; in assay [1]) were 240 nM and 611 nM, respectively.
The like results for CNTATCATQRLANFLVHSSK(mPEG 40 kDa)NFGPILPPTNVGSNTY-NH2 (ends and bridges not checked, also called Cmpd 76) [[K^21(mPEG40KD)]-Cmpd 59] were, in that order, 1.75 nM, 388 nM and 131 nM.
As to CNTATCATQRLANFLVHSSNNFGPILPPTNK(mPEG40KD)GSNTY-NH2 (ends and bridges not checked, also called Cmpd 92) [[K^32(mPEG40KD)]-Cmpd 58], in the assay with human amylin receptor 3 [2], the “Functional EC50, Human AMY3” value amounted to 24.7 nM. The concentration for half-maximal inhibition (IC50) with human amylin receptor 3 [3] is 1000 nM.
As to CNTATCATQRLANFLVHSSNNFGPILPPK(mPEG40KD)NVGSNTY-NH2 (ends and bridges not checked, also called Cmpd 87) [[K^30(mPEG40KD)]-Cmpd 58], the “Functional EC50, Human AMY3” value with human amylin receptor 3 [2] came to 4.25 nM. Besides, the IC50 in the assay with human amylin receptor 3 [3] worked out at 685 nM; in assay [1], 599 nM.
As to CNTATCATQRLANFLVHSSNNFK(mPEG40KD)PILPPTNVGSNTY-NH2 (ends and bridges not checked, also called Cmpd 80) [[K^24(mPEG40KD)]-Cmpd 62], in the assay with human amylin receptor 3 [2], the “Functional EC50, Human AMY3” value turned out to be 0.41 nM. Also, the IC50 with human amylin receptor 3 [3] stood at 111 nM; in assay [1], 79 nM.
Regarding CNTATCATQRLANFLK(mPEG 40 kDa)HSSNNFGPILPPTNVGSNTY-NH2 (ends and bridges not checked, also called Cmpd 89) [[K^17(mPEG40KD)]-Cmpd 58], in the assay with human amylin receptor 3 [2], the “Functional EC50, Human AMY3” value is 2.23 nM. The IC50 with human amylin receptor 3 [3] stood at 334 nM.
CNTATCATQRLANFLVHSSNNFGPILPPTK(mPEG40KD)VGSNTY-NH2 (ends and bridges not checked, also called Cmpd 78) [[K^31(mPEG40KD)]-Cmpd 61]: the “Functional EC50, Human AMY3” value with human amylin receptor 3 [2] came to 0.1 nM. Further, the values for the IC50 (with human amylin receptor 3 [3]; in assay [1]) were 80 nM and 61 nM, respectively.
On to CNTATCATQRLANFLVHSSNNFGPILPPTNVGSK(mPEG40KD)TY-NH2 (ends and bridges not checked, also called Cmpd 95) [[K^35(mPEG40KD)]-Cmpd 58], for which the “Functional EC50, Human AMY3” value with human amylin receptor 3 [2] is 0.122 nM. This molecule also gave an IC50 with human amylin receptor 3 [3] of 143 nM.
On the same counts, the results for CNTATCATQRLANFLVHSK(mPEG 40 kDa)NNFGPILPPTNVGSNTY-NH2 (ends and bridges not checked, also called Cmpd 91) [[K^20(mPEG40KD)]-Cmpd 58] are 5.51 nM and 918 nM.
Regarding CNTATCATQRLANFLVHSSNNFGPIK(mPEG40KD)PPTNVGSNTY-NH2 (ends and bridges not checked, also called Cmpd 82) [[K^27(mPEG40KD)]-Cmpd 64], in the assay with human amylin receptor 3 [2], the “Functional EC50, Human AMY3” value turned out to be 0.2 nM. Further, the figures for the IC50 (with human amylin receptor 3 [3]; in assay [1]) were 87 nM and 51 nM, respectively.
The like results for CNTATCATQRLANFLVHSSNNFGK(mPEG40KD)ILPPTNVGSNTY-NH2 (ends and bridges not checked, also called Cmpd 81) [[K^25(mPEG40KD)]-Cmpd 63] were, in that order, 0.086 nM, 48 nM and 31 nM.
Regarding CNTATCATQRLANFLVK(mPEG 40 kDa)SSNNFGPILPPTNVGSNTY-NH2 (ends and bridges not checked, also called Cmpd 90) [[K^18(mPEG40KD)]-Cmpd 58], the “Functional EC50, Human AMY3” value in the assay with human amylin receptor 3 [2] was determined as 0.85 nM. In addition, in the assay with human amylin receptor 3 [3], the IC50 was 238 nM.
With CNTATCATQRLANFLVHSSNNFGPILK(mPEG40KD)PTNVGSNTY-NH2 (ends and bridges not checked, also called Cmpd 83) [[K^28(mPEG40KD)]-Cmpd 65], the “Functional EC50, Human AMY3” value in the assay with human amylin receptor 3 [2] stood at 0.2 nM. In addition, the results for the IC50 (with human amylin receptor 3 [3]; in assay [1]) were 46 nM and 53 nM, respectively.
On the same counts, the results for CNTATCATQRLANFLVHSSNNFGPILPK(mPEG40KD)TNVGSNTY-NH2 (ends and bridges not checked, also called Cmpd 84) [[K^29(mPEG40KD)]-Cmpd 66] are 0.11 nM, 47 nM and 27 nM.
As for CNTATCATQRLANFLVHSSNK(mPEG 40 kDa)FGPILPPTNVGSNTY-NH2 (ends and bridges not checked, also called Cmpd 85) [[K^22(mPEG40KD)]-Cmpd 58], the “Functional EC50, Human AMY3” value in the assay with human amylin receptor 3 [2] was 1.66 nM. Also, in assay [1], the concentration for half-maximal inhibition (IC50) is 148 nM.
In assay [1], CNTATCATQRLANFLVRSSNNLGPVLPPTK(mPEG40KD)VGSNTY-NH2 (ends and bridges not checked, also called Cmpd 74) [[K^31(mPEG40KD)]-Cmpd 56] displayed an IC50 of 75 nM.
In the case of KCNTATCATQRLANFLVRSSNNLGPVLPPTNVGSNTY-NH2 (ends and bridges not checked, also called Cmpd 49) [rat amylin, KCNTATCATQRLANFLVRSSNNLGPVLPPTNVGSNTY-NH2], in assay [4], the IC50 came to 0.1 nM. This lies in the sub-nanomolar range.
On to CNTATCATQRLANFLVHSSNNFGPK(mPEG40KD)LPPTNVGSNTY-NH2 (ends and bridges not checked, also called Cmpd 88) [[K^26(mPEG40KD)]-Cmpd 58], for which the “Functional EC50, Human AMY3” value with human amylin receptor 3 [2] is 0.082 nM. The molecule further came in with an IC50 in the assay with human amylin receptor 3 [3] of 74 nM.

The values are drawn from US20140221282A1 (AstraZeneca / MedImmune, published 2014).
